What all share (format): binding, human
One assay addresses SCRIB_PDZ_1. Nature of the assay: nHU-MS, SCRIB_PDZ_1 bait, total Jurkat extracts (Exploris MS). The source says: (§1) To further establish the repeatability and robustness of the nHU-MS assay, we repeated the experiments using a different mass spectrometer and six different PDZ domain baits taken from SCRIB (PDZ_1 and PDZ_2), discs large MAGUK scaffold protein 1 (DLG1, PDZ_1, and PDZ_2), Tax1 binding protein 3 (TAX1BP3), and SNX27 (fig. S3B and table S1). […] Of the studied baits, the PDZ domain of SNX27 turned out to be the most promiscuous with 103 statistically significant interaction partners (while 180 SNX27 binding partners were identified in total on the basis of the three independent nHU-MS experiments).
(§2) For saturating streptavidin resin with biotinylated peptides or biotin, 50 μl of streptavidin resin was mixed with biotin or peptide at 40 to 60 μM concentration in 6 to 6.5 resin volume for 60 min. To saturate streptavidin resin with biotinylated proteins, 50 μl of streptavidin resin (Streptavidin Sepharose High Performance, Cytiva) was mixed with biotinylated MBP or MBP-PDZ at 40 to 50 μM concentration in 20× resin volume for 60 min. After saturation, resins were washed a single time [10 resin volume, holdup buffer: 50 mM tris (pH 7.5), 300 mM NaCl, and 1 mM TCEP, 0.22-μm filtered] and were depleted with biotin (10 resin volume, 10 min, holdup buffer supplemented with 100 μM biotin). Last, resins were washed two times (10 resin volume, holdup buffer).
(§3) For single-point nHU experiments carried out at ~10 μM bait concentration, 50 μl of saturated streptavidin resin was mixed with 200 μl of cell lysate (2 mg/ml). Titration experiments were carried out by mixing control and bait-saturated resin and keeping the total resin volume constant; e.g., ~5 μM bait concentration can be achieved by mixing 25 μl of bait-saturated streptavidin resin with 25 μl of control resin and 200 μl of cell lysate (2 mg/ml). Control and bait-saturated resins were prepared in larger amounts, and a serial dilution was prepared with these presaturated resins to achieve different resin ratios.
(§4) Unless specified elswhere, the nHU mixture was incubated at 4°C for 2 hours. After the incubation ended, the resin was separated from the supernatant by a brief centrifugation (15 s, 2000 g). Then, half of the supernatant was removed by pipetting without any delay to avoid any resin contamination; e.g., 100 μl of supernatant is collected if 200 μl of cell lysate was used as analyte. Alternatively, the supernatant can be centrifuged an additional time to clarify it further, removing any possible resin contamination. In principle, the separation of the supernatant should be as fast as possible since any delay can perturb the equilibrium. […] Alternatively, the resin can be separated from the supernatant using filter plates (e.g., various products of Millipore, Burlington, MA) or spin columns (e.g., Pierce spin cups—cellulose acetate filter from Thermo Fisher Scientific, Waltham, MA) to achieve faster separation.
The nHU samples were precipitated with trichloroacetic acid (TCA) 20% overnight at 4°C and centrifuged at 14,000 rpm for 10 min at 4°C. The protein pellets were washed twice with 1 ml of cold acetone and air-dried. The protein extracts were solubilized in 8 M urea, reduced with 5 mM TCEP for 30 min, and alkylated with 10 mM iodoacetamide for 30 min in the dark. Double digestion was performed at 37°C with 500 ng of endoproteinase Lys-C (Wako, Richmond, USA) for 4 hours, followed by fourfold dilution and an overnight digestion with 500 ng of trypsin (Promega, Charbonnieres les Bains, France). Peptide mixtures were then desalted on a C18 spin-column and dried on a speed vacuum.
(§5) Samples were analyzed using an Ultimate 3000 nano-RSLC coupled in line via a nano-electrospray ionization source, with an LTQ-Orbitrap ELITE mass spectrometer (Thermo Fisher Scientific, San Jose, CA) or with the Orbitrap Exploris 480 mass spectrometer (Thermo Fisher Scientific, Bremen, Germany) equipped with a high field asymmetric ion mobility spectrometry (FAIMS) module. […]

The target in another assay is SCRIB_PDZ_2. Nature of the assay: nHU-MS, SCRIB_PDZ_2 bait, total Jurkat extracts (Exploris MS).
Excerpt: as §1, §2, §3, §4
(§6) The nHU samples were precipitated with trichloroacetic acid (TCA) 20% overnight at 4°C and centrifuged at 14,000 rpm for 10 min at 4°C. The protein pellets were washed twice with 1 ml of cold acetone and air-dried. […]
as §5

The next assay concerns SNX27_PDZ. Nature of the assay: nHU-MS, SNX27_PDZ bait, total Jurkat extracts, series 2 (Exploris MS). The conditions noted are these: Jurkat, series 2, n = 3.
Excerpt: as §1, §2, §3, §4, §6, §5

The test system of another assay is TX1BP3_PDZ. Nature of the assay: nHU-MS, TX1BP3_PDZ (TAX1BP3) bait, total Jurkat extracts (Exploris MS). The conditions noted are these: nHU-MS, total Jurkat extract.
Excerpt: as §1, §2, §3
Unless specified elswhere, the nHU mixture was incubated at 4°C for 2 hours. After the incubation ended, the resin was separated from the supernatant by a brief centrifugation (15 s, 2000 g). Then, half of the supernatant was removed by pipetting without any delay to avoid any resin contamination; e.g., 100 μl of supernatant is collected if 200 μl of cell lysate was used as analyte. […]
as §5

In another assay the test system is DLG1_PDZ_1. Kind of assay: nHU-MS, DLG1_PDZ_1 bait, total Jurkat extracts (Exploris MS).
Excerpt: as §1, §2
(§7) For single-point nHU experiments carried out at ~10 μM bait concentration, 50 μl of saturated streptavidin resin was mixed with 200 μl of cell lysate (2 mg/ml). […]
as §5

In another assay the test system is DLG1_PDZ_2. Kind of assay: nHU-MS, DLG1_PDZ_2 bait, total Jurkat extracts (Exploris MS). The conditions noted are these: Jurkat extract.
Excerpt: as §1, §2, §7, §5

The record followed here is PMC9770967, “Native holdup (nHU) to measure binding affinities from cell extracts” (Science Advances, 2022).

What is called pKd is the negative decadic logarithm of the Kd, by convention in mol/L.

B1: EWSR1 (protein, UniProt Q01844 1-656, looked up)
RNA-binding protein EWS: MASTDYSTYSQAAAQQGYSAYTAQPTQGYAQTTQAYGQQSYGTYGQPTDVSYTQAQTTATYGQTAYATSYGQPPTGYTTPTAPQAYSQPVQGYGTGAYDTTTATVTTTQASYAAQSAYGTQPAYPAYGQQPAATAPTRPQDGNKPTETSQPQSSTGGYNQPSLGYGQSNYSYPQVPGSYPMQPVTAPPSYPPTSYSSTQPTSYDQSSYSQQNTYGQPSSYGQQSSYGQQSSYGQQPPTSYPPQTGSYSQAPSQYSQQSSSYGQQSSFRQDHPSSMGVYGQESGGFSGPGENRSMSGPDNRGRGRGGFDRGGMSRGGRGGGRGGMGSAGERGGFNKPGGPMDEGPDLDLGPPVDPDEDSDNSAIYVQGLNDSVTLDDLADFFKQCGVVKMNKRTGQPMIHIYLDKETGKPKGDATVSYEDPPTAKAAVEWFDGKDFQGSKLKVSLARKKPPMNSMRGGLPPREGRGMPPPLRGGPGGPGGPGGPMGRMGGRGGDRGGFPPRGPRGSRGNPSGGGNVQHRAGDWQCPNPGCGNQNFAWRTECNQCKAPKPEGFLPPPFPPPGGDRGRGGPGGMRGGRGGLMDRGGPGGMFRGGRGGDRGGFRGGRGMDRGGFGGGRRGGPGGPPGPLMEQMGGRRGGRGGPGKMDKGEHRQERRDRPY
As to B1, the “pKapp (nHU-MS)” value at SCRIB_PDZ_1 (SCRIB_PDZ_1&Jurkat (Exploris)) turned out to be 4.689; on SCRIB_PDZ_2 (SCRIB_PDZ_2&Jurkat (Exploris)), 4.691.

B2: NBDY: Negative regulator of P-body association (protein, UniProt A0A0U1RRE5 1-68, looked up)
Negative regulator of P-body …: MGDQPCASGRSTLPPGNAREAKPPKKRCLLAPRWDYPEGTPNGGSTTLPSAPPPASAGLKSHPPPPEK
With B2, the BI in the assay with SNX27_PDZ is 0.08384; in the assay with TX1BP3_PDZ (TX1BP3_PDZ bait vs MBP), 0.0117; in the assay on SCRIB_PDZ_1 (nHU-MS, SCRIB_PDZ_1 bait vs MBP, total Jurkat extract), -0.02908; in the assay with SCRIB_PDZ_2 (nHU-MS, SCRIB_PDZ_2 bait vs MBP, total Jurkat extract) it was -0.01381; in the assay on DLG1_PDZ_1 (DLG1_PDZ_1 bait vs MBP, total Jurkat extract), -0.03605; in the assay on DLG1_PDZ_2 (DLG1_PDZ_2 bait), -0.1197. Further, the “Difference log2” value with SNX27_PDZ was -0.1263; in the assay on TX1BP3_PDZ (TX1BP3_PDZ vs MBP), -0.01698; in the assay on SCRIB_PDZ_1 (nHU-MS, SCRIB_PDZ_1 vs MBP, total Jurkat extract), 0.04136; in the assay with SCRIB_PDZ_2 (nHU-MS, SCRIB_PDZ_2 vs MBP, total Jurkat extract), 0.01978; in the assay on DLG1_PDZ_1 (DLG1_PDZ_1 vs MBP, total Jurkat extract), 0.0511; with DLG1_PDZ_2 (DLG1_PDZ_2 bait vs MBP), 0.1631. For the same molecule, the “Ratio SNX27/MBP” value with SNX27_PDZ was determined as 0.9162. The pKd on SNX27_PDZ (apparent, not filtered for significance) is 3.962; on TX1BP3_PDZ (TX1BP3_PDZ bait, not filtered for significance (pKdsign N/D)) it was 3.0735. Further, the “Ratio TX1BP3/MBP” value with TX1BP3_PDZ (TX1BP3_PDZ) was determined as 0.9883. In the assay on SCRIB_PDZ_1 (nHU-MS, SCRIB_PDZ_1, total Jurkat extract), the “Ratio SCRIB_1/MBP” value turned out to be 1.029. Besides, in the assay on SCRIB_PDZ_2 (nHU-MS, SCRIB_PDZ_2, total Jurkat extract), the “Ratio SCRIB_2/MBP” value was found to be 1.014. Besides, the “Ratio DLG1_1/MBP” value in the assay with DLG1_PDZ_1 (DLG1_PDZ_1, total Jurkat extract) amounted to 1.036. Also, the “Ratio DLG1_2/MBP” value with DLG1_PDZ_2 (DLG1_PDZ_2 bait vs MBP) came to 1.12.
